Experimental findings from patent US20140303084A1 (Biogen, published 2014) are described below.

The target of the test is human Factor IXa (human, UniProt P00740 47-191; P00740 227-461). In words: cell-based or functional assay.

Bridge positions count the residues as written; N and C are the ends. Square brackets hold non-standard residues; d marks the D form. Ends that are not written are not given here. (PEG)4 = polyethylene glycol, 4 units; Dap = NC[C@H](N)C(=O)O

With KLTCLASKCWLF, the “EC50 [µM], FXa generation assay” value is greater than 100 µM.

B1: Dpr-LTCLASYCWLF (peptide)
peptide: [Dap]LTCLASYCWLF
modifications: not fully specified; printed as Dpr-LTCLASYCWLF; cysteine pairing not given here
On to B1, for which the “EC50 [µM], FXa generation assay” value was greater than 1 µM. For the molecule QQTCQASQCQLF, the “EC50 [µM], FXa generation assay” value is greater than 20 µM.

B2: KLTCLA-Dpr-YCWLF (peptide)
peptide: KLTCLA[Dap]YCWLF
modifications: not fully specified; printed as KLTCLA-Dpr-YCWLF; cysteine pairing not given here
Regarding B2, the “EC50 [µM], FXa generation assay” value was greater than 20 µM. The figure for Ac-KLTCLASYCWLF (not fully specified; cysteine pairing not given here) [Ac-KLTCLASYCWLF] is greater than 1 µM; for KLTCLKSYCWLF it is greater than 1 µM; for KLTCLASYCQLV it is less than 0.5 µM. Next, KLTCLASYCWXF (not fully specified; Nle 11) [KLTCLASYCW-Nle-F]: less than 0.5 µM; KLTCLASYCWLF (Lys(Me3CI) 1) [Lys(Me3CI)-LTCLASYCWLF]: greater than 1 µM. Regarding {(PEG)27}-KLTCLASYCWLF (cysteine pairing not given here) [(PEG)27-KLTCLASYCWLF], the “EC50 [µM], FXa generation assay” value was greater than 1 µM.

For the molecule KLTCRASYCQLF, the “EC50 [µM], FXa generation assay” value was greater than 1 µM. As to MLTCIASYCQLG, the “EC50 [µM], FXa generation assay” value was greater than 20 µM.

In the case of KLTCLASYCWLK, the “EC50 [µM], FXa generation assay” value is greater than 100 µM.

In the case of KLTCLXSYCWLF (not fully specified; Abu 6) [KLTCL-Abu-SYCWLF], the “EC50 [µM], FXa generation assay” value was greater than 1 µM. On to QLTCLASYCGGV, for which the “EC50 [µM], FXa generation assay” value is greater than 20 µM. The figure for QLTCLASYCWLF is greater than 20 µM; for QLTCLASECGLS it is greater than 20 µM.

As for KLTCLXSYCWLF (not fully specified; Aib 6) [KLTCL-Aib-SYCWLF], the “EC50 [µM], FXa generation assay” value was greater than 20 µM. Turning to XLTCLASYCWLF (not fully specified; Orn 1) [Orn-LTCLASYCWLF], the “EC50 [µM], FXa generation assay” value is less than 0.5 µM. Next, RCAQSRLPWLVSYCWLFSPYGM: greater than 5 µM. In the case of KLTCLATYCWLF, the “EC50 [µM], FXa generation assay” value is greater than 1 µM.

Take KLTCLASQCWLF: the “EC50 [µM], FXa generation assay” value is less than 0.5 µM.

As to EQTCLASYCWLF, the “EC50 [µM], FXa generation assay” value is greater than 20 µM. Next, TLTCRASYCQLF: greater than 1 µM. NLTGRASYGWLP: the “EC50 [µM], FXa generation assay” value is greater than 20 µM. The figure for KLTCLASYCWLF-OH (disulfide 4-9 (inferred)) [KLTCLASYCWLF-COOH] is greater than 1 µM; for SCVKHELKCLSSDSRLFSAVQR it is greater than 20 µM; for RRCPGKLQALASYCWLFWTGIA it is greater than 1 µM. As to SLADTQLTWLARQYWLSVSEGS, the “EC50 [µM], FXa generation assay” value is greater than 20 µM. The figure for KLTCLASYCWLF-{(PEG)4-NH2} (cysteine pairing not given here) [KLTCLASYCWLF-(PEG)4-CONH2] is greater than 1 µM.

Regarding KLTCLXSYCWLF (not fully specified; Dpr 6) [KLTCL-Dpr-SYCWLF], the “EC50 [µM], FXa generation assay” value was greater than 1 µM.

On to AQTRVARCCQLF, for which the “EC50 [µM], FXa generation assay” value is greater than 20 µM.

Take DSRSAKRKCLASYCWLFGIGQA: the “EC50 [µM], FXa generation assay” value was greater than 20 µM. Next, KLTCLSSYCWLF: greater than 1 µM; KLTELASY[Dap]WLF (not fully specified; printed as KLT-Glu-LASY-Dap-WLF) [KLT-Glu-LASY-Dap-WLF]: less than 0.5 µM.

B3: KLTCLASYC-Nal-LF (peptide)
peptide: KLTCLASYC[Nal]LF
modifications: not fully specified; printed as KLTCLASYC-Nal-LF; cysteine pairing not given here
Regarding B3, the “EC50 [µM], FXa generation assay” value is less than 0.5 µM. Next, NPTCQASYCQLF: greater than 20 µM. Next, KKTCLASYCWLF: greater than 50 µM; KEGFAQLPCLVCQGGLFSPRAI: greater than 20 µM; KLTCLASYCWYF: less than 0.5 µM.

As to KLT[Dap]LASYEWLF (not fully specified; printed as KLT-Dap-LASY-Glu-WLF) [KLT-Dap-LASY-Glu-WLF], the “EC50 [µM], FXa generation assay” value is less than 0.5 µM.

Take KLTCLAXYCWLF (not fully specified; HSe 7) [KLTCLA-HSe-YCWLF]: the “EC50 [µM], FXa generation assay” value was greater than 1 µM.

QLPCLASYCGLF: the “EC50 [µM], FXa generation assay” value is greater than 20 µM. Next, LRTQPKVTGLASCSGLVNCSRD: greater than 20 µM. Next, WVPQWKVTCLASCSRLFHGFDA: greater than 5 µM. On to KLTCQASYCWLF, for which the “EC50 [µM], FXa generation assay” value was greater than 1 µM. The figure for LQELTKLTCLARSGWLVCNPGY is greater than 20 µM; for KLTCLASYCWLF (Lys(Me)2 1) [Lys(Me)2-LTCLASYCWLF] it is greater than 1 µM; for GASSDKLTCRTRHCSMFQPLSV it is greater than 20 µM. In the case of KKTCVASFCQMI, the “EC50 [µM], FXa generation assay” value is greater than 5 µM. Next, GCSSDKLTARTRHCSMFQPLSV: greater than 20 µM; KLKCLSSECQLL: greater than 20 µM; {(PEG)27-(PEG)27}-KLTCLASYCWLF (cysteine pairing not given here) [(PEG)27(PEG)27-KLTCLASYCWLF]: greater than 1 µM. For the molecule KLTCKASYCWLF, the “EC50 [µM], FXa generation assay” value is greater than 1 µM. The figure for GSCRDQLTCLSSDRWQFFRRVS is greater than 20 µM; for KLTCLGSYCWLF it is greater than 1 µM; for KLSCQAGQCWVF it is greater than 1 µM. Consider KGRCLTSHCWLF, for which the “EC50 [µM], FXa generation assay” value is greater than 20 µM.
